# Source: patent publication US20230272099A1 (Chugai, published 2023)
# Residue numbers refer to the chain shown, from its start.
# B1: 20H4.9-MB110/20H4.9LC-mk0 (antibody, mouse IgG1, kappa)
# heavy: QVQLQQWGAGLLKPSETLSLTCAVYGGSFSGYYWSWIRQSPEKGLEWIGEINHGGYVTYNPSLESRVTISVDTSKNQFSLKLSSVTAADTAVYYCARDYGPGNYDWYFDLWGRGTLVTVSSAKTTPPSVYPLAPGSAAQTNSMVTLGCLVKGYFPEPVTVTWNSGSLSSGVHTFPAVLQSDLYTLSSSVTVPSSTWPSETVTCNVAHPASSTKVDKKIVPRDCGCKPCICTVPEVSDVFIFPPKPKDVLTITLTPKVTCVVVDISKDDPEVQFSWFVDDVEVHTAQTQPREEQFNSTFRSVSELPIMHQDWLNGKEFKCRVNSAAFPAPIEKTISKTKGRPKAPQVYTIPPPKEQMAKDKVSLTCMITDFFPEDITVEWQWNGQPAENYKNTQPIMDTDGSYFVYSKLNVQKSNWEAGNTFTCSVLHEGLHNHHTEKSLSHSPGK
# light: EIVLTQSPATLSLSPGERATLSCRASQSVSSYLAWYQQKPGQAPRLLIYDASNRATGIPARFSGSGSGTDFTLTISSLEPEDFAVYYCQQRSNWPPALTFGGGTKVEIKRADAAPTVSIFPPSSEQLTSGGASVVCFLNNFYPKDINVKWKIDGSERQNGVLNSWTDQDSKDSTYSMSSTLTLTKDEYERHNSYTCEATHKTSTSPIVKSFNRNEC
# notes: also called NS1-MB110
# B2: 20H4.9-MB492/20H4.9LC-mk0 (antibody, mouse IgG1, kappa)
# heavy: B1 heavy with T231E, V232P, P233N, S236E, N322D
# light: B1 light
# notes: also called NS1-MB492
# B3: dBBAT091-P253 (antibody, human IgG1, lambda, V domains shown)
# VH: EVQLVESGGDLVKPGGGLRLSCAASGFTFSSYTMNWVRQAPGKGLEWVSSISSRSNYIDYADSVKGRFTISRDNAKNSLYLQMNSLRAEDTAVYYCARFGKKNDMNWVFDYWGQGTLVTVSS
# VL: QSALTQPPSASGSPGQTVTISCTGTSTDVGFYNYVSWYQQHPGKAPKLMIYEGSKRPSGVPDRFSGSKSGNTASLTVSGLQAEDEADYFCSSYEYTESVLFGGGTKLTVLG
# B4: dBBAT119-P253 (antibody, human IgG1, lambda, V domains shown)
# VH: B3 VH with S31T, Y32F, I58K, D59S, F99Y, K101A, D104F
# VL: B3 VL with E52Y, G53T, E94R, T96D, E97H, S98Q, L100S
# notes: also called dBBAT119H-P253/dBBAT119L-LamLib
# B5: dBBAT021-P253 (antibody, human IgG1, lambda, V domains shown)
# VH: B3 VH with I58R, F99Y, K101G, D104I, M105L
# VL: B3 VL with T27S, G53V, E94S, Y95S, T96D, E97T, S98H, L100G
# B6: dBBAT037-P253 (antibody, human IgG1, lambda, V domains shown)
# VH: B3 VH with S31G, K101L, D104S, M105L
# VL: B3 VL with G53T, E94S, Y95G, T96A, E97S, S98I, V99L
# B7: dBBAT122-P253 (antibody, human IgG1, lambda, V domains shown)
# VH: B3 VH with S31T, I58K, D59F, K101G, D104N
# VL: B3 VL with T27S, G53V, T96I
# B8: dBBAT112-P253 (antibody, human IgG1, lambda, V domains shown)
# VH: B3 VH with S31T, I58K, D59F, K101V, D104N
# VL: B3 VL with T27S, G53V, T96I
# B9: dBBAT042-P253 (antibody, human IgG1, lambda, V domains shown)
# VH: B3 VH with Y32H, V48I, I58K, D59S, F99Y, K101H, D104M, M105H
# VL: B3 VL with T27S, G53V, S92T, E94R, T96D, E97Q, S98N, L100A
# Molecular target: T1, hCD137 (FXa digested) (human, UniProt Q07011 24-186)
# T1 construct: Factor Xa digestion and Protein A removed the Fc; also called human CD137 extracellular domain
# Assay: SPR 37C, 10 uM ATP
# Protocol: (§1) Measurements of human CD137 binding were taken at 37° C. using 20 mM ACES (pH 7.4), 150 mM NaCl, 2 mM MgCl₂, and 0.05% Tween20 as running buffer. At first, antibodies were captured by interacting antibody solutions prepared in running buffer with the rabbit anti-mouse IgG (Thermo Scientific)-immobilized Series S Sensor Chip CM5 (GE Healthcare). The human CD137-binding activity in the presence of ATP and in the absence of ATP was then assessed by interacting with a human CD137 solution prepared in running buffer supplemented with a desired concentration of ATP, or a human CD137 solution prepared in running buffer without ATP. […] The chip was regenerated using 25 mM NaOH and 10 mM Glycine-HCl (pH 1.5), and measurements were performed by repeatedly capturing antibodies. Dissociation constant (KD) of the respective antibodies for human CD137 was calculated using Biacore T200 Evaluation Software 2.0. Specifically, the association rate constant ka (L/mol/s) and the dissociation rate constant kd (1/s) were calculated by global fitting of the sensorgrams obtained by measurement with the 1:1 Langmuir binding model, and the dissociation constant KD (mol/L) was calculated from these values.
# T1 sequence (Q07011 other isoform, or with tags, fused parts or gaps limits assumed): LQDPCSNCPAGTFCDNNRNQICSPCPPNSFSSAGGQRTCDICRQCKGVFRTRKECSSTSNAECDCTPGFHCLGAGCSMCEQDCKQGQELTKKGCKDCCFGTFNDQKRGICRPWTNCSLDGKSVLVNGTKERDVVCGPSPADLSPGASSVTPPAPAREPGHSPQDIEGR
row,Binder,Kd [nM]
1,B1,53.9
2,B2,53.5

# Molecular target: T2, biotinylated Fc-fused monkey CD137 (monkey, biotin on the AviTag)
# T2 construct: also called cyCD137-Fc-BAP
# Assay: ELISA, 1 mM ADP, 0.625 ug/mL
# Parameters: reference not given here
# Protocol: (§2) The obtained antibodies were evaluated for binding to monkey CD137 by ELISA. The cyCD137-Fc-BAP prepared in Reference Example 1 was immobilized on Streptawell microtiter plates. After the unbound antigen was removed from the plates by washing each well of the plates with the wash buffer, the wells were blocked with 150 μL of a blocking buffer (TBS with 2% BSA) for 1 hour or more. The blocking buffer was removed from each well, and 100 μL of the purified antibodies diluted in TBS with a final concentration of 1 mM ADP, or TBS with a final concentration 1 mM ADP was added to each well. The plate to which the antibody was added was shaken at 600 rpm for 1 hour. The AP-conjugated anti-human lambda antibodies (BETHYL) diluted in TBS with a final concentration of 1 mM ADP were added to each well after washing with a wash buffer (TBS with 0.1% Tween20) containing a final concentration of 1 mM ADP. After incubation for one hour and washing with a wash buffer containing a final concentration of 1 mM […], BluePhos phosphate substrate (KPL) was added. Color development was measured by absorbance at 600 nm. Samples with a concentration-dependent increase in the absorbance ratio can be said to be bound to monkey CD137.
# T2 sequence (chain, as listed by the source limits assumed): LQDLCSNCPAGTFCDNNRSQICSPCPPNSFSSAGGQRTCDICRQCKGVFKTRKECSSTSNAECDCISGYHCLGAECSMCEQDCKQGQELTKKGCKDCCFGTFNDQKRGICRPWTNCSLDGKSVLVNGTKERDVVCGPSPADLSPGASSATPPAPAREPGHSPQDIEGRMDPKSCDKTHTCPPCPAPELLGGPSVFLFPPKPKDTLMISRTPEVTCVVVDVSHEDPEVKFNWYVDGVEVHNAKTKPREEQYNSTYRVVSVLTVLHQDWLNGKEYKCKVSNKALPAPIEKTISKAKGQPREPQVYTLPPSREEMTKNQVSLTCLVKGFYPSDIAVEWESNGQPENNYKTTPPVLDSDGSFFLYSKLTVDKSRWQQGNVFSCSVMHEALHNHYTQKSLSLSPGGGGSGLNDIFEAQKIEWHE
row,Binder,absorbance ratio
1,B3,1.7
2,B4,57.2
3,B5,4.6
4,B6,4.6
5,B7,5.7
6,B8,2.8

# Molecular target: T1, hCD137 (FXa digested)
# Assay: SPR, 1 mM ATP
# Protocol: (§3) Biacore T200 (GE Healthcare) was used to analyze the interaction of antigen-antibody reaction between the anti-CD137 antibodies and hCD137 (FXa digest). […] For the running buffer, 20 mM ACES, 150 mM NaCl, 2 mM MgCl₂, 0.05% Tween20 (pH 7.4) was used, and 10 mM Glycine-HCl (pH 1.5) was used as the regeneration solution.
# (§4) After capturing of the anti-CD137 antibodies suspended in TBS, 500 nM hCD137 (FXa digest) was injected into each flow cell at a flow rate of 10 μL/min for three minutes. This three-minute period served as the binding phase for hCD137 (FXa digest), and after the binding phase ended, the two-minute period of switching to the running buffer served as the dissociation phase for hCD137 (FXa digest). After completion of the dissociation phase, the regenerative solution was injected at a flow rate of 30 μl/min for 30 seconds. The above was the cycle for measuring the binding activity of anti-CD137 antibodies. The binding amount of hCD137 (FXa digest) that interacted with the anti-CD137 antibody in the binding phase was adjusted by the amount of antibody captured. Biacore T200 Evaluation Software Version 2.0 was used to display the binding amount (RU) per capture ligand 1 RU, and values of the antibody capture amount (amount of antibody captured) and antigen-binding amount were obtained. Since the binding amount of antigen reflects the binding activity, it can be said that dependence on a small molecule is recognized when the value in the presence of the small molecule (ATP, ADP or AMP) is higher than the value without the small molecule. In particular, the larger the difference is, the higher the dependence is on a small molecule.
row,Binder,binding amount [RU]
1,B3,6.2
2,B9,11.7
3,B4,45.7
4,B5,9.2
5,B6,27.5
6,B7,11.5
7,B8,12.6

# Molecular target: T2, biotinylated Fc-fused monkey CD137
# Assay: ELISA, 1 mM ADP, 0.156 ug/mL
# Parameters: reference not given here
# Protocol: as §2
row,Binder,absorbance ratio
1,B3,0.7
2,B4,47.7
3,B5,1.7
4,B6,1.9
5,B7,1.9
6,B8,1

# Molecular target: T1, hCD137 (FXa digested)
# Assay: SPR, 100 uM ADP
# Protocol: as §3, §4
row,Binder,binding amount [RU]
1,B3,33
2,B9,58.7
3,B4,112
4,B5,56.6
5,B6,72.1
6,B7,55.5
7,B8,43

# Molecular target: T2, biotinylated Fc-fused monkey CD137
# Assay: ELISA, 1 mM ADP, 0.010 ug/mL
# Parameters: reference not given here
# Protocol: as §2
row,Binder,absorbance ratio
1,B3,0.6
2,B4,10.2
3,B5,0.9
4,B6,1.1
5,B7,0.9
6,B8,0.6

# Molecular target: T1, hCD137 (FXa digested)
# Assay: SPR 37C, 1 uM ATP
# Protocol: as §1
row,Binder,Kd [nM]
1,B1,56.5
2,B2,54.9

# Molecular target: T1, hCD137 (FXa digested)
# Assay: SPR 37C, no ATP
# Protocol: as §1
row,Binder,Kd [nM]
1,B1,61
2,B2,61.6

# Molecular target: T1, hCD137 (FXa digested)
# Assay: SPR, no small molecule
# Protocol: as §3, §4
row,Binder,binding amount [RU]
1,B3,1.5
2,B9,2.9
3,B4,3.3
4,B5,2.9
5,B6,3.8
6,B7,3.3
7,B8,3.7

# Molecular target: T1, hCD137 (FXa digested)
# Assay: SPR, 1 mM AMP
# Protocol: as §3, §4
row,Binder,binding amount [RU]
1,B3,2.9
2,B9,7.8
3,B4,58.6
4,B5,5.7
5,B6,21.7
6,B7,5.7
7,B8,6.5

# Molecular target: T1, hCD137 (FXa digested)
# Assay: SPR, 100 uM ATP
# Protocol: as §3, §4
row,Binder,binding amount [RU]
1,B3,3
2,B9,4.3
3,B4,12.9
4,B5,2.4
5,B6,15.9
6,B7,4.7
7,B8,6.3

# Molecular target: T2, biotinylated Fc-fused monkey CD137
# Assay: ELISA, 1 mM ADP, 2.5 ug/mL
# Parameters: reference not given here
# Protocol: as §2
row,Binder,absorbance ratio
1,B3,5.5
2,B4,56.6
3,B5,14
4,B6,12.7
5,B7,16.7
6,B8,8.1

# Molecular target: T1, hCD137 (FXa digested)
# Assay: SPR, 100 uM AMP
# Protocol: as §3, §4
row,Binder,binding amount [RU]
1,B3,3.3
2,B9,4.7
3,B4,26.9
4,B5,3
5,B6,13.8
6,B7,4.1
7,B8,4.8

# Molecular target: T1, hCD137 (FXa digested)
# Assay: SPR 37C, 100 uM ATP
# Protocol: as §1
row,Binder,Kd [nM]
1,B1,51.9
2,B2,50.4

# Molecular target: T2, biotinylated Fc-fused monkey CD137
# Assay: ELISA, 1 mM ADP, 10 ug/mL
# Parameters: reference not given here
# Protocol: as §2
row,Binder,absorbance ratio
1,B3,15.1
2,B4,55.3
3,B5,40.5
4,B6,32.5
5,B7,31.9
6,B8,19.8

# Molecular target: T1, hCD137 (FXa digested)
# Assay: SPR, 10 uM ADP
# Protocol: as §3, §4
row,Binder,binding amount [RU]
1,B3,20
2,B9,19.1
3,B4,67.2
4,B5,19.6
5,B6,62.9
6,B7,19.2
7,B8,27.4

# Molecular target: T2, biotinylated Fc-fused monkey CD137
# Assay: ELISA, 1 mM ADP, 0.039 ug/mL
# Parameters: reference not given here
# Protocol: as §2
row,Binder,absorbance ratio
1,B3,0.5
2,B4,26.6
3,B5,1.2
4,B6,1.3
5,B7,1
6,B8,0.6
